Experiment: yeast display, Sf9 membrane polyspecificity reagent, FACS + sequencing; frameworks hold sequencing errors
Method in brief: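 Galactose-induced (36–48 hours) yeast carrying a synthetic nanobody display library were exposed to 10% biotinylated, detergent-solubilized Sf9 membrane reagent at 4 °C for 1 hour. FACS followed streptavidin microbead enrichment, using low and high (top ~1%) gates for expression (anti-HA) and reagent binding (streptavidin). Colony PCR, MiSeq 2 × 250 sequencing and CDR-length filtering followed. Labels for polyreactivity reflect the gate of origin.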

Row | Sequence | polyreactivity (PSR sort gate)
1 | QVQLVESGGGLVQAGGSLRLSCAASGGTFGVNAMGWYRQAPGKERELVAAISSSGGRTYYADSVKGRFTISRDNAKNTVFLQMNSLKPEDTAVYYCAARNYFWGQGTQVTVSS | low polyreactivity
2 | QVQLVESWGGLVQAGGSLRLSCAASGFIFQTNVMGWYRQAPGKERELVAAISSGDSTYYADSVKGRFTISRDNAKNTVYLQMNSLKPEDTAVYYCAADVLGTTTTVGGFNYWGQGTQVTVSS | low polyreactivity
3 | QFQLVESGGGLVQAGVSLRLICAASVSTFGYNAMGWYRQAPGKERELVPANNGRGGGTYYADSVKGRFTISRDNAKNTVYLQINSLKPEDTAVYYCAKLRRAGTGRGSHVYRQSDYWGQGTQVTVSS | high polyreactivity
4 | QVQLVESGGGLVQAGGSLRLSCAASGSIFTNYAMGWYRQAPGKERELVATITYYADSVKGRFTISRDNAKNTVYLQMNSLKPVDTAVYYCAAVRSGPGYDYWGQGTQVTVSS | low polyreactivity
5 | QVQLVESGGGLVQAGGSLRLSCAASGSIFFSYAMGWYRQARGKERELVAAISTSGGNTYYADSVKGRFTISRDNAKNTVYLQMNSLKPEDTAVYYCNALYIYFYNYLTMDYWGQGTQVTVSS | low polyreactivity
6 | QVQLVESGGGLVQAGGSLRLSCAASGRIIPRNAMGWYRQAPGKEMELVAGISRGGSTYYADSVKGRFTISRDNAKNTVYLQMNSLKTEDTAVYYCAAAYQKSPITPKMDYWGQGTQVTVSS | low polyreactivity
7 | QVQLVETGGGLVQAGGSLRLSCAASGSTFVRYTMGWYRQAPGKERELVAAISQRDSRTYYADSVKGRFTISRDNAKNTVYLQMNSLKPEDTAVYYCAARSWWYRSATYNYWGQGTQVTVSS | high polyreactivity
8 | QVQLVESGGGLVQAGGSLRLSCAASGRTFRGNVMGWYRQAPGKEREFVAAITKSDGSTYYADSVKGRFTISRDIAKNTVYLQMNSLNPEDTAVDYCAARTARTGWPWFRFDYWGQGTQVTVSS | low polyreactivity
9 | QVQLQESAGGLVQAGGSLRQSCEASGYIIPYYSMGWYRQSPGKERGLVACIAAGTTTNYADSVNGRFTISRDNEKNTVYLQMNSLNPEDAAVYFCAALNAFNTGHWYWGQGTQVTVSS | low polyreactivity
10 | QGQLVVSGGGLVQAGGSLRLSCAASGRISSSYAMGWYRQAPGKEREFVAAIRSSGGSTYYADSVKGRFTISRDYAKNTVYLQMISLKPVDTAVYYCNKVGFYQSRKYYYWGQATQVTVSS | high polyreactivity
11 | QVQLVESGGGLVQAGGSLRLSCAASGRTFFYYAMGWYRQAPGKDRELVAAISWGGGRTYYADSVKGRFTISRDNAKNTVYLQMNSLKPEETAVYYCAAGVYTGQHEYDYWGQGTQVTVSS | low polyreactivity
12 | QVQLVESGGGLVQAGGSLRLSCAASGFTFNDYAMGWYRQAPGKARELVAAIEWYGGRTYYADSVKGRFTISRDHAKNTDYFHMTSLKPVATAVYYCAAVLYSRLDWYRLDYWGQGTQVTVSS | low polyreactivity
13 | QVQLVESGGGLVQAGGSLRLSCAASGFTFSPNARGWYRQAPGKERELVAAISKGGSSTYYADSVKGRFTISRDNAKNTVYLQMNSLKPEDTAVYYCARPSTHKGYDYWGQGTQVTVSS | high polyreactivity
14 | QVQLQESGGGLVQAGGSLRLSCAVSGTIFFPLDMGWYRQAPGRELEYVAAIAEGTSTYYADSVKGRFTISRDNAKNTVYPQMYSLKPEDTAVYYCAAYRSTPQQFHYWGQGTQVTVSS | high polyreactivity
15 | QVQIVESGGGLVQAGGSLRLSCGASGRIFYNYALGWYRQAPGKERELVAAISGSGGSTYYADSVKGRFTISRDNAKNTVYLQMNSLKPEDTAVYYCSTSGPQYYSRNFDYWGQGTQVTVSS | low polyreactivity
16 | QVQLVESGGGLVQAGGSLRLSCAASGSTFGGYAMGWYRQAPGKERELVAAISKSGGSTYYADSVKGRFTISRDNAKNTVYLQMNSLKPEDTAVYYCNAPYKRSPYNYWGQGTQVTVSS | high polyreactivity
17 | QVQLVESGGGLVQAGGSLRLSCAASGFTYSTNAMGWYRQAPGTERELVAAISGSGGSTYYADSVKGRFTISRDNAKNTVYLQMNSLKPEDTAVYYCAARCPYYSWGRYEYYYWGQGTQVTLSS | high polyreactivity
18 | QVQLVESGGGLVQAGGSLRLSCAASGRIFRVYAMGWYRPAPGKERELVAAITSGGTTYADSVKGRFTISRDNAKNTVYLQMYSLKPEDTAVYYCAARHAYPYRRGDFNYWGQGTQVTVSS | high polyreactivity
19 | QVQLVESGGGLVQAGGSLRLSCAASGSTFSYYAMGWYRQAPGKERELVAAISSRGGSTYYADSVKGRFTISRDNAKNTVYLQMNSQKPEDTAVYYCNADHQFRSSVSGDHDYWGQGTQVTVSS | high polyreactivity
20 | QVQLVESGGGLVQAGGSLRLSCAASGSIFPTYAMGWYRQAPGKERELVAAIRSGSNTYYADSLKGRFTISRDNAKNTDYLQMNCLKPEDTAVYYCNVGPQRKYPGRRTVPFGYWGQGTQVTVSS | low polyreactivity
21 | QVQLVESGGGLVQAGGSLRLSCAATGSTFHNYAMGWYRQAPGKERELGAGISVRGGGTYYADSVKGRFTISRDNAKNTVYLQMNSLKPEDTAVYYFAKRSRYYYRYDYWGQGTQVTVSS | high polyreactivity
22 | QVQLVESGGGLVQAGGSLRVSCAASGIIFYGYAMGWYRQAPGKEMELVAVITSGGSTNYADSVKGRFTISRDNAKNTVYLQMNSLKPEDTAVYYCAAKYHYFGFRYDYWGQGTQVTVSS | high polyreactivity

Row | Sequence | polyreactivity (PSR sort gate)
23 | QVQLVESGGGLVQAGGSLRLSCAASGSIFLYNAMGWYRQAPGKERELVATITYIGGRTYYADSVKGRFTISRDNAKNTVYLQMNSLKPEDTAVYYCAAEYYVISSPSFYEYDYWGQGTQVTVSS | low polyreactivity
24 | QVQLVESGGGLFQAGGSLRIICAASGSIFGAYAMGWYRQAPGKERELVAGIRRAGDSTYYADSVKGRFTISRDYAKNTVYLLMNCMKPEDTAVYYCAAYLYLEYYYRGQGTQVTVSS | low polyreactivity
25 | QVQLQESGGGLVQAGDSQRLSCAASGNIFRFTDMGWYRQAPGKERELVAAINAGSTTYYADSVKGRFTISRDNAKNTVYLQMNSLKPEDTAVYYCAVYYLGSGTFGYWGQGAQVTVSS | high polyreactivity
26 | QVQLVESGGGLVQAGGSLRLSCAASGRIFGVYAMGWYRPAPGKERELVAAITRGASTYYADSVKGRFTISRDNAKNTVYLQMNSLKPEDTAVYYCAAVVSGRYWGYYSWGQGTQVTVSS | high polyreactivity
27 | QVQLVESGGGLVQAGGSLRLSCAASGFIILINVMGGYRQAPGNERELVAVITGGGTTNYADSVKGRFTISRDNAKNTVYLQMYSLKPEDTAVYYCAADWIVVSEFGLDYHMDYWGQGSQVTVSS | low polyreactivity
28 | QVQLVESGGGLVQAGGSLRLSCAASGLIFVPYAMGWYRQAPGKERELVATISARGASTYYADSVKGRFTISRDNAKNTVYLQMNSLKPEDTAVYYCATRNYGRASYDYWGQGTQVTVSS | high polyreactivity
29 | QVQLVESGGGLVQAGGSLRLSCAASGRIFYSNVMGWYRQAPGKERELVAAIRFSGGGTYYADSVKGRFTITRDNAKNTVYLQMNSLKPEDTAVYYCAAEYYLRVSGRTYVTSHDYWGQGTQVTVSS | high polyreactivity
30 | QVQLVESGGGLVQAGGSLRLSCAASGITFLYYAMGRYRPAPGKERELVAAITGDGSTTYADSVKGRFTISRDNAKNTVYLQMNSLKPEDTAGYYCAADDQYYGDGFWGQGTQLTVSS | high polyreactivity
31 | QVQLVESGGGLVQAGGSLRLSCAASGSTFVSNAMGWYRQAPGKERELVAAISSSGGRTSYADSVKGRFTISRDNAKNTVYLQMNSLKPEDTAVYYCAARFKSVDYVQYYYWGQGTQVTVSS | low polyreactivity
32 | QVQLVESGGGLVQAGVSLRLSCAASGRIKDNVMGWYRQAPGKERELVAAITRYAGRTYYAYSVKGRFTISRDNAKITVYLQMNSLKPVDTAVYYCAAQAERSGYEYWGLGTQVTVSS | low polyreactivity
33 | QVQHVESGGGLVQAGGSLRLSSAASGFTFYGYAMGWYRPARGNERELVATIRRSTGSTYYADSVKGRFTISRDNAKYSVYLQMNSLKPDDTAVYYCATRVWFPITSYDYWGQGTQVTVSS | low polyreactivity
34 | QDQLVESGGGLVQAGGSLRLSCASSGSTFNIYAMGWYRQAPGKERELVAAITSRGTSTYYADSVKGRFTISRDNAKNTVYLQMNSLKPEDTAVYYCAAEVSGNYYRYNYWGQGTQVTVSS | high polyreactivity
35 | QVQLVESVGGLVQAGGSLRLSCAASGRTIHFNTMGWYRQAPGKERELVAAIRWGGNTYYADSVKGRFTISRDNAKNTVYLQMNSLKPEDTAVYYCAADRWYYFLMYYWGQGTQVTVSS | low polyreactivity
36 | QVQLVESGGGLVQAGGSLRLSCAASGSTFGPYAMGWYRPAPGKERELVADITSSDGSTYYADSVKGRFTISRDNAKNSVYFHLNSLKREDTAVYYCNADYRYIWTYWGWTIYDYWGQGTQVTVSS | high polyreactivity
37 | QVQLVESGGGLVQAGGSLRISCAASGFTFSAYAMGRYRQAPGKERELVAAISWSGSRTYYADSVKGRFTISRDNAKNTVYLQMNSLKPEDTAVYYCAKEPYDTFGFYEYDYWGQGTQVNVSS | low polyreactivity
38 | QVQRVESGGGLVQAGGSLRLSCAASGRIFALYARGWYRQAPGKEREWVAAISWSGGSTFYADSVKGRFTSSRDTAKNTVYLQMTSLKPEEPAVYYCNKDHLVYPSEFYYWGQGTQVTVSS | low polyreactivity
39 | QVQLVESGRGLVQAQGSLRLSCAASGRIFNYNAMGWYRQAPGNERELVAVISRRGGSTYYADSVKGRFTISRDYAKNTVYLQMNSLKPEDTAVYYCGADLPSYPYEYWGLGTQVTVSS | low polyreactivity
40 | QVQLVESGGGLVQAGGSLRLSCAASGSIFSINAMGWYRQAPGKERELVAAISWDGGSTYYADSVKGRFTISRDNAKYTVYLQKNSLKPEDTAVYYCNAAGYVPRNIFAGSRSLRYDYWGQGTQVTVSS | high polyreactivity
41 | QVQLVESGGGLVQAGGSLRLSCAASGSTFRRNAMGWYRPAPGKERELVAAITSTDSTYYADSVKGRFTISRDNAKNTVYLQMNSLKPEDTAVYYCAKGYWWGGQMGYWGQGTQVTVSS | low polyreactivity
42 | QVQLVESGAGLVQAGGSLRLSCAASGSIFNYYAMVWYRQAPGKERELFAGITTSGGSTYYADSVKGSFTISRDNAKNSVYLQMKSLKPVDTAVYYCGAYDHISSTYFLDDSWGQGTQVTVSS | low polyreactivity
43 | QVQLVESGGGLVQAGGSLRLSCAASGGIFWTYAMGWYRQEPGKERELVAAISYSDGITYYADSGKGRFTISRDNAKNTVYFQMYSLKPEDTAVYYCAADPELAVPMYYWGQGTQVTVSS | low polyreactivity
